Assay results as given in publication PMC2566858 (Nucleic Acids Research, 2008).
Like-named read-outs stand apart in the source and are kept apart here.

How the values were obtained:
Assay in all cases: fluorescence anisotropy
[1] = molecular target: T1, rGyr_hel (reverse gyrase helicase-like domain) (Thermotoga maritima, UniProt O51934 59-541)
T1 sequence: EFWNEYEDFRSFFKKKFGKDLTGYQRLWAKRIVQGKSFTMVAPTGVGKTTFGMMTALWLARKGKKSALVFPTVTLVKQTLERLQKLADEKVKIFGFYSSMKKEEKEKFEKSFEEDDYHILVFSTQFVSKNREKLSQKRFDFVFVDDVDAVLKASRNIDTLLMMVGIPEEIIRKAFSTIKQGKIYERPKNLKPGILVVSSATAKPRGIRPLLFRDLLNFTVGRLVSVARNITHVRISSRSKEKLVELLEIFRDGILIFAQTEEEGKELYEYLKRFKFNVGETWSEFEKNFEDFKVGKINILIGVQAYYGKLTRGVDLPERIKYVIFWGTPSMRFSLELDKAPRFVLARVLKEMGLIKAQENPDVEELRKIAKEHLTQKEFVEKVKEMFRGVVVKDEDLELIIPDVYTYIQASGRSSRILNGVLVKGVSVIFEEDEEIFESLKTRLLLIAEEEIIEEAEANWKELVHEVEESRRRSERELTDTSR

[2] = molecular target: T1, rGyr_hel (reverse gyrase helicase-like …); remark: listed apart in the source
[3] = molecular target: T1, rGyr_hel (reverse gyrase helicase-like …); remark: listed apart in the source
[4] = molecular target: T2, rGyr_fl K106Q/Y851F (Thermotoga maritima, UniProt O51934 1-1104, K106Q;Y851F)
T2 sequence: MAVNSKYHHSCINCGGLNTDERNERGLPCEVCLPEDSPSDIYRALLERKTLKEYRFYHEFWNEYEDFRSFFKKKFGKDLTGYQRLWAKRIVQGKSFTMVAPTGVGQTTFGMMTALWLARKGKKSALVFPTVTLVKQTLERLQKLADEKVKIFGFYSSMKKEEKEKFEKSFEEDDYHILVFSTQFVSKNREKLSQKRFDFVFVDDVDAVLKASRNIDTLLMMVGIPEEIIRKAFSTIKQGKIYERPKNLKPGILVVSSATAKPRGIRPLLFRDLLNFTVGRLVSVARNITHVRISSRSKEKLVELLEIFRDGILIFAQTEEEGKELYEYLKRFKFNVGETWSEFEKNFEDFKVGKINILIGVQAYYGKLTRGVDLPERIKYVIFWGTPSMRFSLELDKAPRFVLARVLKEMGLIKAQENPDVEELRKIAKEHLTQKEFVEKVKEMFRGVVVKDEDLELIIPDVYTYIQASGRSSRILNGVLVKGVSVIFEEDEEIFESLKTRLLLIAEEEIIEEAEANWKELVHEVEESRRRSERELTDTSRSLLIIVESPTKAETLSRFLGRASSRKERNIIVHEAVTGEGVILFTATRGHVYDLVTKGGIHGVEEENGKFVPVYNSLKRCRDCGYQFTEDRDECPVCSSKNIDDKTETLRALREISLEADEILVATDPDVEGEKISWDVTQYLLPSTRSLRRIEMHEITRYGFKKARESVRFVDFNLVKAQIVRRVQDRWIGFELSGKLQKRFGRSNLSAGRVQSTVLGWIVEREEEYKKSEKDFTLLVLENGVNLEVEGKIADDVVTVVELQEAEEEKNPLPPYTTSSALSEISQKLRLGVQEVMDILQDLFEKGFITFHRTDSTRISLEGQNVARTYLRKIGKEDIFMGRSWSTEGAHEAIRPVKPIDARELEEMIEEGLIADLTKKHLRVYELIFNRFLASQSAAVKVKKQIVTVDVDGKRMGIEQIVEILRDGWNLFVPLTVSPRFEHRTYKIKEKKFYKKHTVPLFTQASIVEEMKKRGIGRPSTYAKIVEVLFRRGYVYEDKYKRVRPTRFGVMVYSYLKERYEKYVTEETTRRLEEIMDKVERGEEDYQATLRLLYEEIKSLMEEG

[5] = molecular target: T2, rGyr_fl K106Q/Y851F; remark: listed apart in the source

B1: 60-base ssDNA (ssDNA)
DNA: AAGCCAAGCTTCTAGAGTCAGCCCGTGATATTCATTACTTCTTATCCTAGGATCCCCGTT
B1 gave a Kd [1] of 280 ± 10 nM, a Kd [2] of 200 ± 10 nM and a Kd [3] of 330 ± 10 nM.

B2: 60 bp dsDNA (dsDNA)
DNA 1: B1 DNA
DNA 2: AACGGGGATCCTAGGATAAGAAGTAATGAATATCACGGGCTGACTCTAGAAGCTTGGCTT
B2 gave a Kd [4] of 710 ± 110 nM and a Kd [5] of 460 ± 70 nM.
